{
  "source": "patent US20200289646A1",
  "binders": {"B1": {"name": "MSLN targeting trispecific protein 2A2 (protein, part only; not given: Albumin and CD3 binders, linkers, part only)", "chain, part": "QVQLVESGGGLVQAGGSLTLSCAASGSTFSIRAMRWYRQAPGTERDLVAVIYGSSTYYADAVKGRFTISRDNAKNTLYLQMNNLKPEDTAVYYCNADTIGTARDYWGQGTQVTVSSHHHHHH"}, "B2": {"name": "MSLN targeting trispecific protein 2C2 (protein, part only; not given: Albumin and CD3 binders, linkers, part only)", "chain, part": "QVQLVESGGGLVQAGESRRLSCAVSGDTSKFKAVGWYRQAPGAQRELLAWINNSGVGNTAESVKGRFTISRDNAKNTVYLQMNRLTPEDTDVYYCRFYRRFGINKNYWGQGTQVTVSSHHHHHH"}, "B3": {"name": "MSLN targeting trispecific protein 5F2 (protein, part only; not given: Albumin and CD3 binders, linkers, part only)", "chain, part": "B1 chain, part with T19R, S30R, A33V, Y52S, A61S, T98D, I99S, T101I"}, "B4": {"name": "MSLN targeting trispecific protein 7C4 (protein, part only; not given: Albumin and CD3 binders, linkers, part only)", "chain, part": "QVQLVESGGGLVPSGGSLRLSCAASGATSAITNLGWYRRAPGQVREMVARISVREDKEDYEDSVKGRFTISRDNTQNLVYLQMNNLQPHDTAIYYCGAQRWGRGPGTTWGQGTQVTVSSHHHHHH"}, "B5": {"name": "MSLN targeting trispecific protein 7F1 (protein, part only; not given: Albumin and CD3 binders, linkers, part only)", "chain, part": "QVQLVESGGGLVQAGGSLRLSCAASAIGSINSMSWYRQAPGKQREPVAVITDRGSTSYADSVKGRFTISRDNAKNTVYLQMNSLKPEDTAIYTCHVIADWRGYWGQGTQVTVSSHHHHHH"}, "B6": {"name": "MSLN targeting trispecific protein 5D2 (protein, part only; not given: Albumin and CD3 binders, linkers, part only)", "chain, part": "QVQLGESGGGLVQAGGSLRLSCAASGSIFSPNAMIWHRQAPGKQREPVASINSSGSTNYGDSVKGRFTVSRDIVKNTMYLQMNSLKPEDTAVYYCSYSDFRRGTQYWGQGTQVTVSSHHHHHH"}, "B7": {"name": "MSLN targeting trispecific protein 6H2 (protein, part only; not given: Albumin and CD3 binders, linkers, part only)", "chain, part": "QVQLVESGGGLVQAGGSLRLSCAASGRTLSRYAMGWFRQAPGKERQFVAAISRSGGTTRYSDSVKGRFTISRDNAANTFYLQMNNLRPDDTAVYYCNVRRRGWGRTLEYWGQGTQVTVSSHHHHHH"}, "B8": {"name": "MSLN targeting trispecific protein 2D1 (protein, part only; not given: Albumin and CD3 binders, linkers, part only)", "chain, part": "B5 chain, part with A26T, I27T, G28S, P40Q"}, "B9": {"name": "MSLN targeting trispecific protein 12C2 (protein, part only; not given: Albumin and CD3 binders, linkers, part only)", "chain, part": "QVQLVESGGGLVQTGGSLRLSCAASGLTFGVYGMEWFRQAPGKQREWVASHTSTGYVYYRDSVKGRFTISRDNAKSTVYLQMNSLKPEDTAIYYCKANRGSYEYWGQGTQVTVSSHHHHHH"}, "B10": {"name": "MSLN targeting trispecific protein 3F2 (protein, part only; not given: Albumin and CD3 binders, linkers, part only)", "chain, part": "QVQIVESGGGLVQAGGSLRLSCVASGLTYSIVAVGWYRQAPGKEREMVADISPVGNTNYADSVKGRFTISKENAKNTVYLQMNSLKPEDTAVYYCHIVRGWLDERPGPGPIVYWGQGTQVTVSSHHHHHH"}, "B11": {"name": "MSLN targeting trispecific protein 2A4 (protein, part only; not given: Albumin and CD3 binders, linkers, part only)", "chain, part": "QVQLVESGGGLVQARGSLRLSCTASGRTIGINDMAWYRQAPGNQRELVATITKGGTTDYADSVDGRFTISRDNAKNTVYLQMNSLKPEDTAVYYCNTKRREWAKDFEYWGQGTQVTVSSHHHHHH"}, "B12": {"name": "MSLN targeting trispecific protein 6F3 (protein, part only; not given: Albumin and CD3 binders, linkers, part only)", "chain, part": "QVQPVESGGGLVQPGGSLRLSCVVSGSDFTEDAMAWYRQASGKERESVAFVSKDGKRILYLDSVRGRFTISRDIYKKTVYLQMDNLKPEDTGVYYCNSAPGAARNVWGQGTQVTVSSHHHHHH"}, "B13": {"name": "MSLN targeting trispecific protein 2A1 (protein, part only; not given: Albumin and CD3 binders, linkers, part only)", "chain, part": "B12 chain, part with Y75D, V106Y"}, "B14": {"name": "MSLN targeting trispecific protein 3G1 (protein, part only; not given: Albumin and CD3 binders, linkers, part only)", "chain, part": "QVRLVESGGGLVQAGESLRLSCAASGRPFSINTMGWYRQAPGKQRELVASISSSGDFTYTDSVKGRFTISRDNAKNTVYLQMNSLKPEDTAVYYCNARRTYLPRRFGSWGQGTQVTVSSHHHHHH"}, "B15": {"name": "MSLN targeting trispecific protein 12D1 (protein, part only; not given: Albumin and CD3 binders, linkers, part only)", "chain, part": "QVRLVESGGGLVQAGGSLRLSCAASISAFRLMSVRWYRQDPSKQREWVATIDQLGRTNYADSVKGRFAISKDSTRNTVYLQMNMLRPEDTAVYYCNAGGGPLGSRWLRGRHWGQGTQVTVSSHHHHHH"}, "B16": {"name": "MSLN targeting trispecific protein 5H1 (protein, part only; not given: Albumin and CD3 binders, linkers, part only)", "chain, part": "QVQLVESGGGLVQPGGSLRLSCAASGGDWSANFMYWYRQAPGKQRELVARISGRGVVDYVESVKGRFTISRDNAKNTVYLQMNSLKPEDTAVYYCAVASYWGQGTQVTVSSHHHHHH"}, "B17": {"name": "MSLN targeting trispecific protein 4A2 (protein, part only; not given: Albumin and CD3 binders, linkers, part only)", "chain, part": "QVQLVESGGGLVQAGGSLRLSCAASGSTFGINAMGWYRQAPGKQRELVAVISRGGSTNYADSVKGRFTISRDNAENTVSLQMNTLKPEDTAVYFCNARTYTRHDYWGQGTQVTVSSHHHHHH"}, "B18": {"name": "MSLN targeting trispecific protein 3B4 (protein, part only; not given: Albumin and CD3 binders, linkers, part only)", "chain, part": "QVQLVESGGGLVQAGGSLRLSCVASGSTSNINNMRWYRQAPGKERELVAVITRGGYAIYLDAVKGRFTISRDNANNAIYLEMNSLKPEDTAVYVCNADRVEGTSGGPQLRDYFGQGTQVTVSSHHHHHH"}, "B19": {"name": "MSLN targeting trispecific protein 7H2 (protein, part only; not given: Albumin and CD3 binders, linkers, part only)", "chain, part": "QVQLVESGGGLVQAGGSLRLSCAFSGTTYTFDLMSWYRQAPGKQRTVVASISSDGRTSYADSVRGRFTISGENGKNTVYLQMNSLKLEDTAVYYCLGQRSGVRAFWGQGTQVTVSSHHHHHH"}, "B20": {"name": "MSLN targeting trispecific protein 9F3 (protein, part only; not given: Albumin and CD3 binders, linkers, part only)", "chain, part": "QVQLVESGGGLVQAGGSLRLSCAASGSIPSIEQMGWYRQAPGKQRELVAALTSGGRANYADSVKGRFTISGDNVRNMVYLQMNSLKPEDTAIYYCSAGRFKGDYAQRSGMDYWGKGTLVTVSSHHHHHH"}, "B21": {"name": "MSLN targeting trispecific protein 9B1 (protein, part only; not given: Albumin and CD3 binders, linkers, part only)", "chain, part": "QVQLVESGGGLVQPGGSLRLSCAASGRTFSVRGMAWYRQAGNNRALVATMNPDGFPNYADAVKGRFTISWDIAENTVYLQMNSLNSEDTTVYYCNSGPYWGQGTQVTVSSHHHHHH"}, "B22": {"name": "MSLN targeting trispecific protein 11F3 (protein, part only; not given: Albumin and CD3 binders, linkers, part only)", "chain, part": "QVQLVESGGGLVQAGGSLRLSCVASGRTSTIDTMYWHRQAPGNERELVAYVTSRGTSNVADSVKGRFTISRDNAKNTAYLQMNSLKPEDTAVYYCSVRTTSYPVDFWGQGTQVTVSSHHHHHH"}, "B23": {"name": "MSLN targeting trispecific protein 5D4 (protein, part only; not given: Albumin and CD3 binders, linkers, part only)", "chain, part": "QVQLVESGGGLVQAGGSLRLSCVASGRTDRITTMGWYRQAPGKQRELVATISNRGTSNYANSVKGRFTISRDNAKNTVYLQMNSLKPEDTAVYYCNARKWGRNYWGQGTQVTVSSHHHHHH"}, "B24": {"name": "MSLN targeting trispecific protein 9H2 (protein, part only; not given: Albumin and CD3 binders, linkers, part only)", "chain, part": "QVQLVESGGGLVQAGGSLRLSCAASGSTSSINTMYWYRQAPGKERELVAFISSGGSTNVRDSVKGRFSVSRDSAKNIVYLQMNSLTPEDTAVYYCNTYIPLRGTLHDYWGQGTQVTVSSHHHHHH"}, "B25": {"name": "MSLN targeting trispecific protein 5C2 (protein, part only; not given: Albumin and CD3 binders, linkers, part only)", "chain, part": "B24 chain, part with Y37F, K43E, F50T, S52N, S53R, S84R, T86K, L101Y, R102G, Y108F"}, "B26": {"name": "MSLN targeting trispecific protein 5G2 (protein, part only; not given: Albumin and CD3 binders, linkers, part only)", "chain, part": "QVQLVESGGGLVQAGGSLRLSCAASGSTFGNKPMGWYRQAPGKQRELVAVISSDGGSTRYAALVKGRFTISRDNAKNTVYLQMESLVAEDTAVYYCNALRTYYLNDPVVFSWGQGTQVTVSSHHHHHH"}, "B27": {"name": "MSLN targeting trispecific protein 10B3 (protein, part only; not given: Albumin and CD3 binders, linkers, part only)", "chain, part": "B24 chain, part with T86K, L101Y, R102G, Y108F"}, "B28": {"name": "MSLN targeting trispecific protein 2F4 (protein, part only; not given: Albumin and CD3 binders, linkers, part only)", "chain, part": "B5 chain, part with A23T, A24T, A26T, I27T, G28F, K42N, D52N, S55T, K74R, N82D"}},
  "note": "Where a chain is given by its changes, count along the chain named.",
  "data": [
    {"molecular_target": "human mesothelin (MSLN) (human) (UniProt Q13421)", "sequence (Q13421 296-606 limits assumed)": "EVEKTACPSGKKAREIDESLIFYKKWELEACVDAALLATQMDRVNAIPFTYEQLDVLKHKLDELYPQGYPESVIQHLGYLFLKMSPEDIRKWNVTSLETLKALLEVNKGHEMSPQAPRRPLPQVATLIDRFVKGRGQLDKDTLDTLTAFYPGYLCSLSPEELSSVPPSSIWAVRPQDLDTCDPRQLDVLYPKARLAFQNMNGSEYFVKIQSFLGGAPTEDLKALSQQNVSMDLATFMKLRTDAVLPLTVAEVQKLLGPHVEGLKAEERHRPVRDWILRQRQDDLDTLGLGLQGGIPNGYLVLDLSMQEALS", "assay": "cell-based or functional assay", "units": {"TDCC Average EC50 [M], OVCAR8 cells, human T cells": "M"}, "values": [
      {"binder": "B1", "TDCC Average EC50 [M], OVCAR8 cells, human T cells": "1.6e-12"},
      {"binder": "B2", "TDCC Average EC50 [M], OVCAR8 cells, human T cells": "9.5e-09"},
      {"binder": "B3", "TDCC Average EC50 [M], OVCAR8 cells, human T cells": "5.3e-12"},
      {"binder": "B4", "TDCC Average EC50 [M], OVCAR8 cells, human T cells": "1e-08"},
      {"binder": "B5", "TDCC Average EC50 [M], OVCAR8 cells, human T cells": "2.4e-12"},
      {"binder": "B6", "TDCC Average EC50 [M], OVCAR8 cells, human T cells": "1.4e-11"},
      {"binder": "B7", "TDCC Average EC50 [M], OVCAR8 cells, human T cells": "2e-09"},
      {"binder": "B8", "TDCC Average EC50 [M], OVCAR8 cells, human T cells": "5.2e-11"},
      {"binder": "B9", "TDCC Average EC50 [M], OVCAR8 cells, human T cells": "8e-13"},
      {"binder": "B10", "TDCC Average EC50 [M], OVCAR8 cells, human T cells": "2.4e-08"},
      {"binder": "B11", "TDCC Average EC50 [M], OVCAR8 cells, human T cells": "1.9e-09"},
      {"binder": "B12", "TDCC Average EC50 [M], OVCAR8 cells, human T cells": "8.2e-10"},
      {"binder": "B13", "TDCC Average EC50 [M], OVCAR8 cells, human T cells": "1.2e-09"},
      {"binder": "B14", "TDCC Average EC50 [M], OVCAR8 cells, human T cells": "4e-09"},
      {"binder": "B15", "TDCC Average EC50 [M], OVCAR8 cells, human T cells": "1.1e-09"},
      {"binder": "B16", "TDCC Average EC50 [M], OVCAR8 cells, human T cells": "5.9e-12"},
      {"binder": "B17", "TDCC Average EC50 [M], OVCAR8 cells, human T cells": "1.7e-09"},
      {"binder": "B18", "TDCC Average EC50 [M], OVCAR8 cells, human T cells": "1.8e-12"},
      {"binder": "B19", "TDCC Average EC50 [M], OVCAR8 cells, human T cells": "5.5e-12"},
      {"binder": "B20", "TDCC Average EC50 [M], OVCAR8 cells, human T cells": "> 1e-07"},
      {"binder": "B21", "TDCC Average EC50 [M], OVCAR8 cells, human T cells": "> 1e-07"},
      {"binder": "B22", "TDCC Average EC50 [M], OVCAR8 cells, human T cells": "2.2e-12"},
      {"binder": "B23", "TDCC Average EC50 [M], OVCAR8 cells, human T cells": "1e-09"},
      {"binder": "B24", "TDCC Average EC50 [M], OVCAR8 cells, human T cells": "1.1e-12"},
      {"binder": "B25", "TDCC Average EC50 [M], OVCAR8 cells, human T cells": "1.5e-12"},
      {"binder": "B26", "TDCC Average EC50 [M], OVCAR8 cells, human T cells": "3.6e-09"},
      {"binder": "B27", "TDCC Average EC50 [M], OVCAR8 cells, human T cells": "1.4e-12"},
      {"binder": "B28", "TDCC Average EC50 [M], OVCAR8 cells, human T cells": "7.3e-13"}
    ]}
  ]
}
